# Test results taken from US20250304697A1 (ONECHAIN IMNUNOTHERAPEUTICS S L, published 2025).
# Assays:
# [1] = molecular target: mCAR-CD1a (murine CAR-CD1a, scFv derived from the NA1/34.HLK clone) expressed on transduced T cells; test: FACS of mCD1a-CAR-T cells incubated with rCD1a (25 nM by the legend paragraph 24, 200 nM by Example 11 paragraph 349), detection with anti-HIS-APC; UT cells in the same gate 0,2% [cont.) B]
# [2] = molecular target: T1, human recombinant protein extracellular domain of CD1a (rCD1a), produced with a 6xHis tag as a dimer with … (human, UniProt P06126 17-300; P61769 21-119); test: SPR, ratio of KD against mscFv-CD1a
# T1 construct: Used soluble in flow cytometry on CAR-T cells (detected with anti-HIS-APC) and immobilized on CM5 chips in SPR; also called rCD1a-HIS; recombinant protein CD1a; not shown: 6xHis tag
# [3] = molecular target: T1, human recombinant protein extracellular …; test: SPR, Biacore T-200, rCD1a immobilized on CM5 chip, soluble scFv, 1:1 binding fit, 298 K
% of rCD1a positive bound cells [1] [%],fold higher affinity than the murine scFv (mscFv-CD1a) [2] [fold],Kd [3] [nM],koff [3] [s⁻¹],kon [3] [M⁻¹ s⁻¹],Molecule
23.3,–,–,–,–,"human recombinant protein extracellular domain of CD1a (rCD1a), produced with a 6xHis tag as a dimer with b2-microglobulin (hB2M) (from UniProt P06126 17-300; P61769 21-119)"
–,2.4,21,0.0012,56300,"h(2)scFv-CD1a: recombinant humanized (H2 version) scFv anti-CD1a with a 6xHis tag, from XtenCHO cells (scFv, also called hscFv-CD1a; humanized2_scFv-anti-CD1a; not shown: 6xHis tag) scFv: QVQLQQSGAEVKKPGASVKVSCKASGYAFSTYTMHWVRQAPGQGLEWMGYINPNSASTSYAQKFQGRVTMTADKSTNTAYMELSSLRSEDTAVYYCARGFYTMDYWGQGTLVTVSSGGGGSGGGGSGGGGSGGGGSRDIQMTQSPSSLSASVGDRVTITCQASQDINKYIAWYQFKPGKGPRLLIHYTSTLEPAIPSRFSGSGSGREYTFTISSLQPEDIATYYCLHYDNLPWTFGGGTKVEIKRA"
–,–,50,0.00121,24600,"mscFv-CD1a: recombinant murine scFv anti-CD1a with a 6xHis tag, from XtenCHO cells (scFv) scFv: QVQLQQSGAELARPGASVKMSCKASGYAFSTYTMHWVKQRPRQGLEWIGYINPNSASTSYNENFKDKATLTADKSSNTAYMHLSSLTSEDSAVYYCARGFYTMDYWGQGTSVTVSSGGGGSGGGGSGGGGSGGGGSRDIQMTQSPSSLSASLGGKVTITCQASQDINKYIAWYQFKPGKGPRLLIHYTSTLQPAIPSRFSGSGSGREYSFSISNLEPEDIATYYCLHYDNLPWTFGGGTKLEIKRAHHHHHH"
